{"source": "patent US20090176264A1", "key": {"BSA (control) (bovine) [1]": {"target": "BSA (control) (bovine) (UniProt P02769)", "sequence (P02769 25-607 limits assumed)": "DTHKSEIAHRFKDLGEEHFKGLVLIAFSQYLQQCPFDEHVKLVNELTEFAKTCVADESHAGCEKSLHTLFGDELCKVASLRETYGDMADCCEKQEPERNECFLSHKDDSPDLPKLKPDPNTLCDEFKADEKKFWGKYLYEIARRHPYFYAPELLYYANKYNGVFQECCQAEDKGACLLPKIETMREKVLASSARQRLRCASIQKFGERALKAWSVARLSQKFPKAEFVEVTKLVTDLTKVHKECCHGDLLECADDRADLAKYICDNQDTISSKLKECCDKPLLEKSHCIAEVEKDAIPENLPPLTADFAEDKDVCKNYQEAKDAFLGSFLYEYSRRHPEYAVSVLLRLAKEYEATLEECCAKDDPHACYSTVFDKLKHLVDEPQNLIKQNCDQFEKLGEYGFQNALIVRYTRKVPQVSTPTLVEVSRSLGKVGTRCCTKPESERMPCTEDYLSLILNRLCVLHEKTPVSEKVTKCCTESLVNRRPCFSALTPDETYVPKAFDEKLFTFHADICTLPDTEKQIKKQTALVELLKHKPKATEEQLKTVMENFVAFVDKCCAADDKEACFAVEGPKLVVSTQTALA", "experiment": "ELISA, BSA control wells, sFlt at 66.67 ng/mL, detected with RD-1 + RD-2 anti-sFlt"}, "BSA (control) (bovine) [2]": {"target": "BSA (control) (bovine) (UniProt P02769)", "experiment": "ELISA, BSA control wells, sFlt at 200 ng/mL, detected with RD-1 + RD-2 anti-sFlt"}, "BSA (control) (bovine) [3]": {"target": "BSA (control) (bovine) (UniProt P02769)", "experiment": "ELISA, BSA control wells, sFlt at 600 ng/mL, detected with RD-1 + RD-2 anti-sFlt"}, "BSA (control) (bovine) [4]": {"target": "BSA (control) (bovine) (UniProt P02769)", "experiment": "ELISA, BSA control wells, sFlt at 200 ng/mL, detected with RD-1 + RD-2 anti-sFlt", "remark": "listed apart in the source"}, "BSA (control) (bovine) [5]": {"target": "BSA (control) (bovine) (UniProt P02769)", "experiment": "ELISA, BSA control wells, sFlt at 66.67 ng/mL, detected with RD-1 + RD-2 anti-sFlt", "remark": "listed apart in the source"}, "BSA (control) (bovine) [6]": {"target": "BSA (control) (bovine) (UniProt P02769)", "experiment": "ELISA, BSA control wells, sFlt at 600 ng/mL, detected with RD-1 + RD-2 anti-sFlt", "remark": "listed apart in the source"}, "BSA (control) (bovine) [7]": {"target": "BSA (control) (bovine) (UniProt P02769)", "experiment": "ELISA, BSA control wells, sFlt at 1800 ng/mL, detected with RD-1 + RD-2 anti-sFlt"}}, "data": [{"substance": "Full length sFlt (soluble fms-like tyrosine kinase 1, sFlt-1), Scios Inc. Lot# 9225-89 (from UniProt P17948 27-656) (receptor)", "values": [{"measurement": "OD at 492 nm", "setting": "BSA (control) (bovine) [1]", "value": 0.003, "unit": "OD"}, {"measurement": "OD at 492 nm", "setting": "BSA (control) (bovine) [2]", "value": 0.01, "unit": "OD"}, {"measurement": "OD at 492 nm", "setting": "BSA (control) (bovine) [3]", "value": 0.008, "unit": "OD"}, {"measurement": "OD at 492 nm", "setting": "BSA (control) (bovine) [4]", "value": 0.005, "unit": "OD"}, {"measurement": "OD at 492 nm", "setting": "BSA (control) (bovine) [5]", "value": 0.02, "unit": "OD"}, {"measurement": "OD at 492 nm", "setting": "BSA (control) (bovine) [6]", "value": 0.006, "unit": "OD"}, {"measurement": "OD at 492 nm", "setting": "BSA (control) (bovine) [7]", "value": 0.009, "unit": "OD"}]}, {"substance": "Full length sFlt (soluble fms-like tyrosine kinase 1, sFlt-1), Scios Inc. Lot# 9225-89 (from UniProt P17948 27-656)", "values": [{"measurement": "OD at 492 nm", "setting": "BSA (control) (bovine) [7]", "value": 0.004, "unit": "OD"}]}]}
